# Biological target: batCoV-SHC014 S-2P (spike ectodomain) (Bat SARS-like coronavirus RsSHC014, UniProt U5WLK5, stabilised)
# Assay: ELISA
binder,measurement,value
"DH1047 (cross-neutralizing RBD antibody), IgG (antibody, V domains shown) VH: QVQLVQSGAEVKKPGASVQVSCQASANTFTNHYIHWVRQAPGQGLEWMGIIYPTGGNTIYAQGFQGRVTMTRDTSLNTIYLELSSLRSEDTAVYYCARDVRVDDSWSGYDLLSGGTYFDYWGQGTLVTVSS VL: not shown",binding result,binds

# Reference: publication doi:10.1101/2021.02.17.431492 (bioRxiv, 2021)
